PMC8999790, “The Transition of Photoreceptor Guanylate Cyclase Type 1 to the Active State” (International Journal of Molecular Sciences, 2022)

Tests used:
Type in all cases: biochemical, Homo sapiens
[1] = substrate: Nc1nc2c(ncn2[C@@H]2O[C@H](COP(=O)(O)OP(=O)(O)OP(=O)(O)O)[C@@H](O)[C@H]2O)c(=O)[nH]1; experiment: cGMP formation by HPLC in HEK293 membranes, Hill fit; conditions: Mg-GTP, 5 uM GCAP1, <=10 nM free Ca2+ (2 mM EGTA), pH 7.2, 30 °C, half-maximal saturation, Hill h 1.75
Excerpt: cGMP formation by HPLC in HEK293 membranes, Hill fit on human GC-E + GCAP1

[2] = substrate: Nc1nc2c(ncn2[C@@H]2O[C@H](COP(=O)(O)OP(=O)(O)OP(=O)(O)O)[C@@H](O)[C@H]2O)c(=O)[nH]1; experiment: cells, lysate or membranes; conditions: Mg-GTP, pH 7.2, 30 °C, half-maximal saturation
[3] = substrate: Nc1nc2c(ncn2[C@@H]2O[C@H](COP(=O)(O)OP(=O)(O)OP(=O)(O)O)[C@@H](O)[C@H]2O)c(=O)[nH]1; experiment: cGMP formation by HPLC in HEK293 membranes, Hill fit; conditions: Mg-GTP, no GCAPs, <=10 nM free Ca2+ (2 mM EGTA), pH 7.2, 30 °C, half-maximal saturation, Hill h 1.58
Excerpt: cGMP formation by HPLC in HEK293 membranes, Hill fit on human GC-E (no GCAPs)

[4] = substrate: Nc1nc2c(ncn2[C@@H]2O[C@H](COP(=O)(O)OP(=O)(O)OP(=O)(O)O)[C@@H](O)[C@H]2O)c(=O)[nH]1; experiment: as above; conditions: Mg-GTP, 5 uM GCAP2, <=10 nM free Ca2+ (2 mM EGTA), pH 7.2, 30 °C, half-maximal saturation, Hill h 1.76
Excerpt: cGMP formation by HPLC in HEK293 membranes, Hill fit on human GC-E + GCAP2

[5] = 5 uM GCAP1, <=10 nM free Ca2+ (2 mM EGTA), Hill h 1.75, apparent KM
[6] = no GCAPs, <=10 nM free Ca2+ (2 mM EGTA), Hill h 1.58, apparent KM
[7] = 5 uM GCAP2, <=10 nM free Ca2+ (2 mM EGTA), Hill h 1.76, apparent KM

B1: human GC-E + GCAP1 (Homo sapiens; V902L) (protein)
chain: AVFTVGVLGPWACDPIFSRARPDLAARLAAARLNRDPGLAGGPRFEVALLPEPCRTPGSLGAVSSALARVSGLVGPVNPAACRPAELLAEEAGIALVPWGCPWTQAEGTTAPAVTPAADALYALLRAFGWARVALVTAPQDLWVEAGRSLSTALRARGLPVASVTSMEPLDLSGAREALRKVRDGPRVTAVIMVMHSVLLGGEEQRYLLEAAEELGLTDGSLVFLPFDTIHYALSPGPEALAALANSSQLRRAHDAVLTLTRHCPSEGSVLDSLRRAQERRELPSDLNLQQVSPLFGTIYDAVFLLARGVAEARAAAGGRWVSGAAVARHIRDAQVPGFCGDLGGDEEPPFVLLDTDAAGDRLFATYMLDPARGSFLSAGTRMHFPRGGSAPGPDPSCWFDPNNICGGGLEPGLVFLGFLLVVGMGLAGAFLAHYVRHRLLHMQMVSGPNKIILTVDDITFLHPHGGTSRKVAQGSRSSLGARSMSDIRSGPSQHLDSPNIGVYEGDRVWLKKFPGDQHIAIRPATKTAFSKLQELRHENVALYLGLFLARGAEGPAALWEGNLAVVSEHCTRGSLQDLLAQREIKLDWMFKSSLLLDLIKGIRYLHHRGVAHGRLKSRNCIVDGRFVLKITDHGHGRLLEAQKVLPEPPRAEDQLWTAPELLRDPALERRGTLAGDVFSLAIIMQEVVCRSAPYAMLELTPEEVVQRVRSPPPLCRPLVSMDQAPVECILLMKQCWAEQPELRPSMDHTFDLFKNINKGRKTNIIDSMLRMLEQYSSNLEDLIRERTEELELEKQKTDRLLTQMLPPSVAEALKTGTPVEPEYFEQVTLYFSDIVGFTTISAMSEPIEVLDLLNDLYTLFDAIIGSHDVYKVETIGDAYMVASGLPQRNGQRHAAEIANMSLDILSAVGTFRMRHMPEVPVRIRIGLHSGPCVAGVVGLTMPRYCLFGDTVNTASRMESTGLPYRIHVNLSTVGILRALDSGYQVELRGRTELKGKGAEDTFWLVGRRGFNKPIPKPPDLQPGSSNHGISLQEIPPERRRKLEKARPGQFS
notes: full-length GC-E transiently expressed in HEK293, membrane suspension
What does the source list for B1?
K0.5 [1]: 0.20 mM; kcat/Km [1]: 4000 M⁻¹ s⁻¹; Km [2, 5]: 200 µM; kcat/Km [2, 5]: 4000 M⁻¹ s⁻¹

B2: human GC-E (no GCAPs) (Homo sapiens; V902L) (protein)
chain: AVFTVGVLGPWACDPIFSRARPDLAARLAAARLNRDPGLAGGPRFEVALLPEPCRTPGSLGAVSSALARVSGLVGPVNPAACRPAELLAEEAGIALVPWGCPWTQAEGTTAPAVTPAADALYALLRAFGWARVALVTAPQDLWVEAGRSLSTALRARGLPVASVTSMEPLDLSGAREALRKVRDGPRVTAVIMVMHSVLLGGEEQRYLLEAAEELGLTDGSLVFLPFDTIHYALSPGPEALAALANSSQLRRAHDAVLTLTRHCPSEGSVLDSLRRAQERRELPSDLNLQQVSPLFGTIYDAVFLLARGVAEARAAAGGRWVSGAAVARHIRDAQVPGFCGDLGGDEEPPFVLLDTDAAGDRLFATYMLDPARGSFLSAGTRMHFPRGGSAPGPDPSCWFDPNNICGGGLEPGLVFLGFLLVVGMGLAGAFLAHYVRHRLLHMQMVSGPNKIILTVDDITFLHPHGGTSRKVAQGSRSSLGARSMSDIRSGPSQHLDSPNIGVYEGDRVWLKKFPGDQHIAIRPATKTAFSKLQELRHENVALYLGLFLARGAEGPAALWEGNLAVVSEHCTRGSLQDLLAQREIKLDWMFKSSLLLDLIKGIRYLHHRGVAHGRLKSRNCIVDGRFVLKITDHGHGRLLEAQKVLPEPPRAEDQLWTAPELLRDPALERRGTLAGDVFSLAIIMQEVVCRSAPYAMLELTPEEVVQRVRSPPPLCRPLVSMDQAPVECILLMKQCWAEQPELRPSMDHTFDLFKNINKGRKTNIIDSMLRMLEQYSSNLEDLIRERTEELELEKQKTDRLLTQMLPPSVAEALKTGTPVEPEYFEQVTLYFSDIVGFTTISAMSEPIEVLDLLNDLYTLFDAIIGSHDVYKVETIGDAYMVASGLPQRNGQRHAAEIANMSLDILSAVGTFRMRHMPEVPVRIRIGLHSGPCVAGVVGLTMPRYCLFGDTVNTASRMESTGLPYRIHVNLSTVGILRALDSGYQVELRGRTELKGKGAEDTFWLVGRRGFNKPIPKPPDLQPGSSNHGISLQEIPPERRRKLEKARPGQFS
notes: full-length GC-E transiently expressed in HEK293, membrane suspension; no GCAP added
With B2 as the protein, how does the K0.5 [3] read?
The K0.5 was 0.37 mM.

And the kcat/Km [3]?
The kcat/Km was 2100 M⁻¹ s⁻¹.

And the Km [2, 6]?
The Km was 340 µM.

What about the kcat/Km [2, 6] of the same protein?
The kcat/Km was 2100 M⁻¹ s⁻¹.

B3: human GC-E + GCAP2 (Homo sapiens; V902L) (protein)
chain: AVFTVGVLGPWACDPIFSRARPDLAARLAAARLNRDPGLAGGPRFEVALLPEPCRTPGSLGAVSSALARVSGLVGPVNPAACRPAELLAEEAGIALVPWGCPWTQAEGTTAPAVTPAADALYALLRAFGWARVALVTAPQDLWVEAGRSLSTALRARGLPVASVTSMEPLDLSGAREALRKVRDGPRVTAVIMVMHSVLLGGEEQRYLLEAAEELGLTDGSLVFLPFDTIHYALSPGPEALAALANSSQLRRAHDAVLTLTRHCPSEGSVLDSLRRAQERRELPSDLNLQQVSPLFGTIYDAVFLLARGVAEARAAAGGRWVSGAAVARHIRDAQVPGFCGDLGGDEEPPFVLLDTDAAGDRLFATYMLDPARGSFLSAGTRMHFPRGGSAPGPDPSCWFDPNNICGGGLEPGLVFLGFLLVVGMGLAGAFLAHYVRHRLLHMQMVSGPNKIILTVDDITFLHPHGGTSRKVAQGSRSSLGARSMSDIRSGPSQHLDSPNIGVYEGDRVWLKKFPGDQHIAIRPATKTAFSKLQELRHENVALYLGLFLARGAEGPAALWEGNLAVVSEHCTRGSLQDLLAQREIKLDWMFKSSLLLDLIKGIRYLHHRGVAHGRLKSRNCIVDGRFVLKITDHGHGRLLEAQKVLPEPPRAEDQLWTAPELLRDPALERRGTLAGDVFSLAIIMQEVVCRSAPYAMLELTPEEVVQRVRSPPPLCRPLVSMDQAPVECILLMKQCWAEQPELRPSMDHTFDLFKNINKGRKTNIIDSMLRMLEQYSSNLEDLIRERTEELELEKQKTDRLLTQMLPPSVAEALKTGTPVEPEYFEQVTLYFSDIVGFTTISAMSEPIEVLDLLNDLYTLFDAIIGSHDVYKVETIGDAYMVASGLPQRNGQRHAAEIANMSLDILSAVGTFRMRHMPEVPVRIRIGLHSGPCVAGVVGLTMPRYCLFGDTVNTASRMESTGLPYRIHVNLSTVGILRALDSGYQVELRGRTELKGKGAEDTFWLVGRRGFNKPIPKPPDLQPGSSNHGISLQEIPPERRRKLEKARPGQFS
notes: as for B1
For B3, which Km [2, 7] is on record?
Its Km is 310 µM.

And the kcat/Km [2, 7]?
Its kcat/Km is 2200 M⁻¹ s⁻¹.

What about the K0.5 [4] of the same protein?
Its K0.5 is 0.36 mM.

What about the kcat/Km [4] of the same protein?
Its kcat/Km is 2200 M⁻¹ s⁻¹.
